The source of these data is patent publication US20150329637A1 (NUMAB, published 2015).

In assay [1] the target is T1, human IL23R on IL-23R expressing cell lines (DLD-1, SW480, TF-1) (human, UniProt Q5VWK5 24-629).
T1 sequence (looked up): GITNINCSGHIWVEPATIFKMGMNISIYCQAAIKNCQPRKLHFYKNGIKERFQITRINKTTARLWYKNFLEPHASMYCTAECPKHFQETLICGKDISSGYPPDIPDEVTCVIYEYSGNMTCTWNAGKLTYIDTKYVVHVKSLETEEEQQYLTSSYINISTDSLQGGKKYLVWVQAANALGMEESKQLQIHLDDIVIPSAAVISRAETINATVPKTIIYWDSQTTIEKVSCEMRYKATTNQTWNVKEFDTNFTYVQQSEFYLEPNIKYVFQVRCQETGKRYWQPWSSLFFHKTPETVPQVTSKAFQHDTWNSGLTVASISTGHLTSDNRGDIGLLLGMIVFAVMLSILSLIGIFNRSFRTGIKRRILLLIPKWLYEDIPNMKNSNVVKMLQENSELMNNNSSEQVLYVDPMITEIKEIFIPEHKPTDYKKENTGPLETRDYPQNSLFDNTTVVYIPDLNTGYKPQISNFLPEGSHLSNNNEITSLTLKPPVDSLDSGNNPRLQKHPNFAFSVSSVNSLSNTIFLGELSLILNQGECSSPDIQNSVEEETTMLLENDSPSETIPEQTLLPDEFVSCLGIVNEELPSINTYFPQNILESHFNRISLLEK
In words: cell-based or functional assay.

Assay [2] concerns the target T2, Human IL23R extracellular domain (ECD) (human, UniProt Q5VWK5 24-355).
T2 construct: extracellular domain; also called human IL23R ECD
T2 sequence (looked up): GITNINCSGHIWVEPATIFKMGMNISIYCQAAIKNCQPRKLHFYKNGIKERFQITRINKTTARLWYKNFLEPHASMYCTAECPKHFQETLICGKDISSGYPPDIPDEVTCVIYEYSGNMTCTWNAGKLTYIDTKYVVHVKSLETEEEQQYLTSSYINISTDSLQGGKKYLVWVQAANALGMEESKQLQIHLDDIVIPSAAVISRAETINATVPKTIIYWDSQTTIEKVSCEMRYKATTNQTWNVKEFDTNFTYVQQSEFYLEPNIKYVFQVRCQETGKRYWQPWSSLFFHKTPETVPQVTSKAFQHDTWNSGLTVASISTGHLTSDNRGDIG
In words: SPR; human IL23R ECD immobilised, scDb injected. As to the method:
[000154] For affinity measurements to IL23R, human IL23R extracellular domain (produced on request by Trenzyme) was immobilized on a sensor chip (SPR-2 Affinity Sensor High Capacity Amine, Sierra Sensors) using a standard amine-coupling procedure. Two-fold serial dilutions of scDbs ranging from 90 to 5.6 nM were injected into the flow cells for 3 min and dissociation of the protein from the immobilized IL23R on the sensor chip was allowed to proceed for 720 sec. After each injection cycle, surfaces were regenerated with a 1 min injection of 10 mM Glycine-HCl pH 2.0. The apparent dissociation (kd) and association (ka) rate constants and the apparent dissociation equilibrium constant (KD) are calculated with the MASS-1 analysis software (Analyzer, Sierra Sensors) using one-to-one Langmuir binding model.
(In general: In SPR one partner is held on a chip, and binding of the other changes the refractive index at the surface.)

The target of assay [3] is T3, human heterodimeric single-chain CD3γδ extracellular domain (produced in-house) (human).
T3 chain: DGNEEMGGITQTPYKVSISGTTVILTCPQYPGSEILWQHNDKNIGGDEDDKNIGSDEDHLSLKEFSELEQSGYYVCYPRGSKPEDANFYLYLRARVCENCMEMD
In words: SPR; human single-chain CD3 ECD immobilised, scDb injected.

B1: PRO165 (bispecific antibody)
chain: DIQMTQSPSSLSASVGDRVTITCQASENIYSFLAWYQQKPGKAPKLLIYSASKLAAGVPSRFSGSGSGTDFTLTISSLQPEDFATYYCQQTNRYSNPDIYNVFGQGTKLTVLGGGGGSEVQLVESGGGLVQPGGSLRLSCAASGFPLSSYAMIWVRQAPGKGLEWIGMILRAGNIYYASWVKGRFTISRDNSKNTVYLQMNSLRAEDTAVYYCARRHYNREGYPIGIGDLWGQGTLVTVSSGGGGSGGGGSGGGGSGGGGSDIQMTQSPSSLSASVGDRVTITCQSSESVYNNKRLSWYQQKPGKAPKLLIYTASSLASGVPSRFSGSGSGTDFTLTISSLQPEDFATYYCQGEFTCSNADCFTFGQGTKLTVLGGGGGSEVQLVESGGGLVQPGGSLRLSCAASGIDFNSNYYMCWVRQAPGKGLEWIGCIYVGSHVNTYYANWAKGRFTISRDNSKNTVYLQMNSLRAEDTAVYYCATSGSSVLYFKFWGQGTLVTVSS
notes: also called anti-IL23RxCD3ε scDb
The Kd is a measure of binding affinity in units of concentration. A lower Kd goes with tighter binding. In general, koff refers to the first-order rate constant of dissociation. In general, kon refers to a measure of how fast the partners come together. Consider B1, for which, in assay [1], the “EC50 of specific target cell lysis [nM], DLD-1” value amounted to 45.4 nM; the “EC50 of specific target cell lysis [nM], SW-480” value came out at 71.7 nM; the “EC50 of specific target cell lysis [nM], TF-1” value was determined as 39.8 nM. Moreover, the affinity in assay [2], expressed as Kd, was 0.182 nM. Further, in assay [3], the Kd stood at 11.6 nM, the koff was 0.00126 s⁻¹ and the kon amounted to 109000 M⁻¹ s⁻¹.
